Measured values taken from the Human Domainome abundance scans (Beltran et al. 2025).
± gives the uncertainty stated by the source.

B1: Double-stranded RNA-binding protein Staufen homolog 1, residues 183 to 249; numbered along this chain, O95793 (parent)
chain: KSEISQVFEIALKRNLPVNFEVARESGPPHMKNFVTKVSVGEFVGEGEGKSKKISKKNAAIAVLEEL

Variants of: B1
Assay: abundance fitness (aPCA) (normalised: wild type 0, dead -1); higher = more abundant; growth selection in yeast, the domain comes from the species named
Conditions: Homo sapiens

Variant	abundance fitness
N58V	-0.565 ± 0.055
N58A	-0.171 ± 0.056
N58E	-0.238 ± 0.057
N58L	-0.195 ± 0.041
N58K	-0.149 ± 0.048
A59N	-0.705 ± 0.12
A59K	-0.717 ± 0.08
A59S	-0.608 ± 0.055
A59H	-1.04 ± 0.19
A59Y	-1.16 ± 0.34
G45P	-0.975 ± 0.076
G45A	0.069 ± 0.039
G45K	-0.108 ± 0.051
G45N	-0.594 ± 0.12
G45R	-0.265 ± 0.04
G45H	-0.619 ± 0.15
G45I	-0.487 ± 0.089
V35Y	-0.174 ± 0.085
V35K	0.048 ± 0.066
L16V	-0.176 ± 0.066
L16K	-0.432 ± 0.074
L16A	-0.421 ± 0.079
L16C	-0.515 ± 0.076
L16D	-0.54 ± 0.16

Variant	abundance fitness
L16E	-0.472 ± 0.087
L16S	-0.609 ± 0.07
L16W	-0.063 ± 0.051
L16T	-0.594 ± 0.077
V63Y	-0.906 ± 0.12
V63P	-0.577 ± 0.057
V63C	-0.233 ± 0.062
V63D	-0.497 ± 0.097
V63G	-0.482 ± 0.039
E48Y	0.002 ± 0.093
E48C	0.064 ± 0.062
E48I	0.128 ± 0.1
E48D	-0.427 ± 0.1
E48P	-0.808 ± 0.07
E48R	0.104 ± 0.032
K1I	-0.201 ± 0.092
K1L	-0.3 ± 0.052
K1S	-0.316 ± 0.071
G27D	-0.259 ± 0.046
G27Q	-0.259 ± 0.044
G27S	-0.267 ± 0.042
G27L	-0.418 ± 0.036
G27E	-0.339 ± 0.049
E42G	0.011 ± 0.046

Variant	abundance fitness
E42I	-0.407 ± 0.11
E42R	-0.032 ± 0.033
E42W	-0.3 ± 0.044
E42C	-0.161 ± 0.06
E42M	-0.1 ± 0.061
E42P	0.053 ± 0.047
E42S	0.028 ± 0.045
G49I	-0.791 ± 0.094
V22H	-0.083 ± 0.078
V22M	-0.081 ± 0.06
V22E	-0.033 ± 0.054
V22Y	-0.094 ± 0.067
V22K	0.105 ± 0.061
V22A	-0.022 ± 0.045
F8V	-0.203 ± 0.04
F8G	-0.332 ± 0.039
F8D	-0.408 ± 0.066
F8W	0.064 ± 0.047
F8Y	0.129 ± 0.062
F8T	-0.337 ± 0.048
F8L	-0.112 ± 0.039
F8S	-0.394 ± 0.039
S55G	-0.818 ± 0.048
S55Q	-0.769 ± 0.066

Variant	abundance fitness
S55N	-0.8 ± 0.096
S55I	-0.718 ± 0.12
S55F	-0.915 ± 0.11
S55A	-0.092 ± 0.042
K53G	-0.243 ± 0.036
K53H	-0.263 ± 0.077
K53I	-0.225 ± 0.067
S2I	-1.02 ± 0.26
S2E	-0.381 ± 0.082
S2F	-0.709 ± 0.098
S2K	-0.015 ± 0.099
K52V	-0.243 ± 0.044
K52I	-0.175 ± 0.074
K52P	-0.179 ± 0.052
K52F	-0.481 ± 0.082
K52C	-0.432 ± 0.075
K52G	-0.603 ± 0.046
K52N	-0.622 ± 0.088
V18G	-0.707 ± 0.056
V18C	-0.218 ± 0.1
V18K	-0.562 ± 0.093
V18F	-0.832 ± 0.15
V18D	-0.746 ± 0.17
V18L	-0.404 ± 0.044

Variant	abundance fitness
K56W	-0.825 ± 0.1
K56V	-0.32 ± 0.064
K56Y	-0.254 ± 0.092
K56L	-0.36 ± 0.061
I61A	0.002 ± 0.066
I61T	-0.292 ± 0.07
I61G	-0.184 ± 0.04
I61M	-0.095 ± 0.071
I61F	-0.39 ± 0.1
I61Y	-0.478 ± 0.085
I54V	-0.075 ± 0.038
I54L	-0.017 ± 0.036
I54M	-0.051 ± 0.047
I54D	-0.04 ± 0.072
M31W	-0.208 ± 0.038
M31T	0.019 ± 0.044
M31R	0.025 ± 0.029
M31L	-0.098 ± 0.035
M31Q	0.049 ± 0.044
G47S	-0.667 ± 0.048
G47F	-0.945 ± 0.11
G47W	-1.01 ± 0.086
G47E	-0.773 ± 0.063
G47M	-0.874 ± 0.07

Variant	abundance fitness
E25P	-0.209 ± 0.055
E25C	-0.104 ± 0.068
E25T	0.016 ± 0.051
E25G	-0.075 ± 0.045
E25R	-0.046 ± 0.036
E25Y	-0.151 ± 0.065
T36N	-0.674 ± 0.11
T36C	0.046 ± 0.073
T36Q	-0.548 ± 0.059
T36V	-0.684 ± 0.049
T36D	-0.6 ± 0.1
T36W	-1.12 ± 0.1
T36L	-1.04 ± 0.066
T36S	-0.204 ± 0.041
F20T	-0.395 ± 0.059
F20W	0.036 ± 0.061
F20C	-0.361 ± 0.088
F20P	-0.654 ± 0.062
F20Y	-0.291 ± 0.11
F20D	-0.613 ± 0.11
F20N	-0.779 ± 0.17
F20R	-0.569 ± 0.046
L64S	-0.475 ± 0.043
L64Q	-0.448 ± 0.056

Variant	abundance fitness
L64K	-0.472 ± 0.05
L64G	-0.44 ± 0.05
A23L	0.008 ± 0.034
A23K	-0.052 ± 0.047
A23M	0.06 ± 0.058
A23H	0.066 ± 0.076
A23C	-0.055 ± 0.053
E3C	-0.205 ± 0.064
E3N	-0.396 ± 0.086
E3K	-0.194 ± 0.072
E3R	-0.551 ± 0.047
E3T	-0.236 ± 0.056
E3Y	-0.098 ± 0.079
H30W	-0.365 ± 0.064
H30K	0.022 ± 0.052
H30Q	-0.11 ± 0.055
H30R	-0.077 ± 0.039
H30I	-0.288 ± 0.066
H30S	-0.114 ± 0.043
H30V	-0.353 ± 0.045
L12N	0.081 ± 0.11
L12M	0.011 ± 0.079
L12E	-0.085 ± 0.076
